From patent publication US7122187 (IDEC PHARMACEUTICALS, dated 2006)
Residue numbers refer to the chain shown, from its start.

T1: human gp39 (cell surface) (human, UniProt P29965 1-261)
T1 construct: whole, on cells; this was read as mgp39-CHO (membrane gp39); also called CD40 ligand; CD40L
T1 sequence (looked up): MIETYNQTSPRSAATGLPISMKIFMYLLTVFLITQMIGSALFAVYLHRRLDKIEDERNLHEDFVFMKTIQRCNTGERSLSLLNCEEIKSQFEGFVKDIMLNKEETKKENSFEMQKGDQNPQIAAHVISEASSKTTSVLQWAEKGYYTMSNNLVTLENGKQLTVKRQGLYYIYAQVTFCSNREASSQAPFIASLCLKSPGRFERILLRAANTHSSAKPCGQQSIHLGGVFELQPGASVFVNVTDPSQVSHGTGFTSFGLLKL

B1: humanized 24-31 (version 1) (antibody, V domains shown)
VH: EVQLQESGPGLVKPSETLSLTCTVSGDSITNGFWIWIRKPPGNKLEYMGYISYSGSTYYNPSLKSRISISRDTSKNQFSLKLSSVTAADTGVYYCACRSYGRTPYYFDFWGQGTTLTVSS
VL: DIVMTQSPSFLSASVGDRVTITCKASQNVITAVAWYQQKPGKSPKLLIYSASNRYTGVPDRFSGSGSGTDFTLTISSLQPEDFADYFCQQYNSYPYTFGGGTKLEIK
notes: also called h24-31; humanized Version 1
B2: murine antibody 24-31 (antibody, mouse IgG1, V domains shown)
VH: EVQLQESGPSLVKPSQTLSLTCSVTGDSITNGFWIWIRKFPGNKLEYMGYISYSGSTYYNPSLKSRISITRDTSQNQFYLQLNSVTTEDTGTYYCACRSYGRTPYYFDFWGQGTTLTVSS
VL: B1 VL with P8Q, S9K, L11M, A13T, T20S, K42Q, S77N, L78M, P80S, F83L
notes: Murine IgG1 from hybridoma; also called anti-gp39 24-31 mAb; murine 24-31
B3: humanized 24-31 (version 2) (antibody, V domains shown)
VH: B1 VH
VL: DIVMTQSPDSLAVSLGERATINCKASQNVITAVAWYQQKPGQSPKLLIYSASNRYTGVPDRFSGSGSGTDFTLTISSLQAEDVADYFCQQYNSYPYTFGGGTKLEIK
notes: It was expressed from N5KG1 with human kappa and gamma 1 constant regions; also called humanized Version 2; #2 VL with #1 VH

These binders were tested against T1, human gp39 (cell surface) (assay: Scatchard analysis, 125I-labelled antibody competed with unlabelled antibody on gp39-CHO cells).
Description: ^125I-labeled antibody was mixed and incubated with non-labeled antibody in a dilution series. Based on the total amount of bound antibody and the amount of free antibody, a Scatchard plot was generated from a […] graph. The total antibody concentration was based on a standard size of 75 kD for one active site.
The Kd was calculated by generating a "best fit" line. The inverse of the slope of the curve is the Kd. The correlation coefficient, r^2, was also computed.
Binder B1 has a Kd of 5.6 nM. Binder B2 has a Kd of 8.51 nM. With B3 the Kd was 14 nM.
